According to patent US20250320282A1 (MABYLON, published 2025):
Where a chain is given by its changes, count along the chain named.

T1: Ara h 6 (Arachis hypogaea allergen 6) (Arachis hypogaea, UniProt Q647G9 22-145)
T1 construct: Peanut allergen; also called Ara h 6.0101; nAra h 6
T1 sequence: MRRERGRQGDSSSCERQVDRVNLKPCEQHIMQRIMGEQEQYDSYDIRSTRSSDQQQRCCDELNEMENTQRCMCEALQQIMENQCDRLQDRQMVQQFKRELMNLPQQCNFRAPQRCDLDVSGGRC

B1: 15E3_rb_IGHV1S8_J5+IGLV2S2_JL5 (antibody, V domains shown)
VH: QKQLVESGGGLDQPAGSLKLSCKDSGFTLSTFYMTWVHQAPGKGLEWIANIKQDGSEKDYLDSVRGRFTISSDNTQNMVDLEMNSLTAADMAIYFCARNGLQDSYSGDFFDHWGQGTLVTVSS
VL: QPALTQPSSVSGALGGSVTITCSGTGSNIGHNYVSWYQQLPGSVPKLLMFDNTKRPSGIPERFSGSKSGTTASLTISGLQPEDEADYYCATWDADLSAVLFGGGTKLTVL
B2: 7G6_rb_IGHV1S47_J3+IGKV1S19_JK1-2 (antibody, V domains shown)
VH: QEQLVESGGGLVQPEGSLTLTCKASGFDFSDYTMHWVRQAPGKGPEWIAAISYGGTNKYYADSVKGRFTISRSTSLNTVTLQMTSLTAVDTATYFCARDSGYRSLLHWGQGTLVTVSS
VL: AAVLTQTPSPVSAAVGGTVTIKCRSSQSLVHRNGYNYLDWYQQKPGQPPKLLIYMASKRASGVPDRFSGSGSGTQFTLTISGVQCDDAATYYCMQALQTWTFGGGTKVVVK
B3: 7G6_rb_IGHV1S47_J3+IGKV1S19_JK1-3 (antibody, V domains shown)
VH: B2 VH
VL: B2 VL with F102L, G104P, V108L, V109E, V110I
B4: 7G6_rb_IGHV1S47_J3+K66N_IGKV1S19_JK1-2 (antibody, V domains shown)
VH: B2 VH
VL: B2 VL with K58N
notes: Fully rabbit antibody: 7G6 CDRs grafted onto rabbit variable frameworks
B5: MY006-7G6 Fab Hg Lg (Fab, V domains shown)
VH: QVQLVESGGGVVQPGRSLRLSCAASGIAFNDYTMHWVRRAPGKGLEWVAAISYGGTNKYYADSVKGRFTISRDSSKNTLYLQMNSLRAEDTAVYYCARDSGYRSLLHWGQGTLVTVSS
VL: EIVLTQSPLSLPVTPGEPASISCRSSQSLVHRNGYNYLDWYLQKPGQSPQLLIYMASKRASGVPDRFSGSGSGTDFTLKISRVEAEDVGVYYCMQALQTWTFGQGTKVEIK
notes: Germlined variant, IgG1-Fab format
B6: MY006-7G6 Fab Hf Lg (Fab, V domains shown)
VH: B5 VH with R39Q, S74N
VL: B5 VL
notes: Germlined variant, IgG1-Fab format; also called 7G6: Hf/Lg
B7: MY006-7G6 Fab Lf (Fab, V domains shown)
VH: B5 VH with A40S, G42D, Y80F, N84D, A88V
VL: B5 VL with E1D, L4M
notes: Germlined variant, IgG1-Fab format; also called 7G6 Lf
B8: MY006-7G6 Fab Hf (Fab, V domains shown)
VH: B5 VH with R39Q, S74N
VL: B5 VL with D75E, V90I, I110V, K111N
notes: Germlined variant, IgG1-Fab format; also called 7G6 Hf
B9: MY006-7G6 Fab Hg Lf (Fab, V domains shown)
VH: B5 VH
VL: B5 VL with E1D, L4M
notes: as for B5
B10: MY006-7G6 Fab Lg (Fab, V domains shown)
VH: B5 VH with A40S, G42D, Y80F, N84D, A88V
VL: B5 VL
notes: Germlined variant, IgG1-Fab format; also called 7G6 Lg
B11: MY006-7G6 Fab Hf Lf (Fab, V domains shown)
VH: B5 VH with R39Q, S74N
VL: B5 VL with E1D, L4M
notes: as for B5
B12: MY006-7G6 Fab Hg (Fab, V domains shown)
VH: B5 VH
VL: B5 VL with D75E, V90I, I110V, K111N
notes: Germlined variant, IgG1-Fab format; also called 7G6 Hg
B13: MY006-15E3 Fab Hg Lg (Fab, V domains shown)
VH: EVQLVESGGGLVQPGGSLRLSCAASGFKFSTFYMTWIRQAPGKGLEWVANIKQDGSEKDYLDSVRGRFTISRDNAKSSLYLQMNSLRAEDTAVYYCTRNGLQDSYSGDFFDHWGQGTLVTVSS
VL: QSVLTQPPSVSAAPGQKVTISCSGTGSNIGHNYVSWYQQLPGTAPKLLIFDNTKRPSGIPDRFSGSKSGSSATLGITGLQTGDEADYFCATWDADLSAVLFGGGTKLTVL
notes: as for B5
B14: MY006-15E3 Fab Hf (Fab, V domains shown)
VH: B13 VH with I37V, S77N
VL: B13 VL with V10I, G42R, K46R, D86H
notes: Germlined variant, IgG1-Fab format; also called 15E3 Hf
B15: MY006-15E3 Fab Lg (Fab, V domains shown)
VH: B13 VH with G10A, T69N, S78V, S85T, R87S, E89D, A92G, T117I
VL: B13 VL
notes: Germlined variant, IgG1-Fab format; also called 15E3 Lg
B16: MY006-15E3 Fab Lf (Fab, V domains shown)
VH: B13 VH with G10A, T69N, S78V, S85T, R87S, E89D, A92G, T117I
VL: B13 VL with F50Y, S70T, F88Y
notes: Germlined variant, IgG1-Fab format; also called 15E3 Lf
B17: MY006-15E3 Fab Hf Lg (Fab, V domains shown)
VH: B13 VH with I37V, S77N
VL: B13 VL
notes: Germlined variant, IgG1-Fab format; also called 15E3: Hf/Lg
B18: MY006-15E3 Fab Hf Lf (Fab, V domains shown)
VH: B13 VH with I37V, S77N
VL: B13 VL with F50Y, S70T, F88Y
notes: as for B5
B19: MY006-15E3 Fab Hg (Fab, V domains shown)
VH: B13 VH
VL: B13 VL with V10I, G42R, K46R, D86H
notes: Germlined variant, IgG1-Fab format; also called 15E3 Hg
B20: MY006-15E3 Fab Hg Lf (Fab, V domains shown)
VH: B13 VH
VL: B13 VL with F50Y, S70T, F88Y
notes: as for B5
B21: MY006-2F8 Fab Hg (Fab, V domains shown)
VH: EVQLVESGGGLVQPGGSLRLSCAASGFIFSDYNMNWVRQAPGKGLEWVSSITRSSRTIYYADSVKGRFTISRDNAKNSLYLQMNSLRDEDTAVYYCAREDFDVSTGPYYMDVWGKGTTVTVSS
VL: EIVLTQSPGTLSLSPGERATLSCRASQSVSNMFLVWYQQKPGQAPRLLMYGASTRATDIPDRFSGSGSGTDFTLTISRLEPEDFAVYYCQQNGNSPYTFGQGTKLEIK
notes: Germlined variant, IgG1-Fab format; also called 2F8 Hg
B22: MY006-2F8 Fab Lg (Fab, V domains shown)
VH: B21 VH with Q13K, Y80H, E89A, K115N, T120I
VL: B21 VL with D58G
notes: Germlined variant, IgG1-Fab format; also called 2F8 Lg
B23: MY006-2F8 Fab Hg Lg (Fab, V domains shown)
VH: B21 VH
VL: B21 VL with D58G
notes: as for B5
B24: MY006-2F8 Fab Lf (Fab, V domains shown)
VH: B21 VH with Q13K, Y80H, E89A, K115N, T120I
VL: B21 VL with M49I, D58G
notes: Germlined variant, IgG1-Fab format; also called 2F8 Lf
B25: MY006-2F8 Fab Hg Lf (Fab, V domains shown)
VH: B21 VH
VL: B21 VL with M49I, D58G
notes: Germlined variant, IgG1-Fab format; also called 2F8: Hg/Lf

biological target: T1, Ara h 6 (Arachis hypogaea allergen 6); test: ELISA, purified rabbit antibody

Row | Binder | binding result
1 | B1 | binds
2 | B2 | binds
3 | B3 | binds
4 | B4 | binds

biological target: T1, Ara h 6 (Arachis hypogaea allergen 6); test: ELISA, Fab titration on coated Ara h 6
Procedure: Next, the effect of the engineered variable regions on antigen binding was tested. Briefly, ELISA plates were coated with respective Ara h proteins (Ara h 2:0.05 ug/ml, Ara h 6:0.1 ug/ml, Ara h 3 loop (2nd): 0.1 ug/ml) overnight at 4° C. Afterwards, plates were blocked with BSA (2% in PBS) for 1 hour at room temperature. Fab fragment titration series starting from 4 ug/ml was prepared, added to the single ELISA plate wells and incubated for 2 h at room temperature. The read-out was performed by adding anti-hu-kappa/lambda-HRP (anti-kappa Invitrogen (A18853) and anti-lambda abcam (ab99811) for 1 h at room temperature. Tetramethylbenzidine substrate solution (TMB, Sigma-Aldrich Chemie GmbH, Buchs, Switzerland) was added, then after 5 minutes of hydrolysis time, the reaction was stopped by the addition of 1 M H₂SO₄ and the absorbances were read at 450 nm.

Row | Binder | binding result
5 | B5 | binds
6 | B6 | binds
7 | B7 | binds
8 | B8 | binds
9 | B9 | binds
10 | B10 | binds
11 | B11 | binds
12 | B12 | binds
13 | B13 | binds
14 | B14 | binds
15 | B15 | binds
16 | B16 | binds
17 | B17 | binds
18 | B18 | binds
19 | B19 | binds
20 | B20 | binds
21 | B21 | binds
22 | B22 | binds
23 | B23 | binds
24 | B24 | binds
25 | B25 | binds
